Data taken from article PMC9271190.
Where two headings read alike, the source gives them in different places.

Columns and labels:
[1] = target: T1, HERV-K reverse transcriptase (RT) (Human endogenous retrovirus K (Homo …, UniProt V9H0F6 1-596)); assay: X-ray crystallography
T1 sequence: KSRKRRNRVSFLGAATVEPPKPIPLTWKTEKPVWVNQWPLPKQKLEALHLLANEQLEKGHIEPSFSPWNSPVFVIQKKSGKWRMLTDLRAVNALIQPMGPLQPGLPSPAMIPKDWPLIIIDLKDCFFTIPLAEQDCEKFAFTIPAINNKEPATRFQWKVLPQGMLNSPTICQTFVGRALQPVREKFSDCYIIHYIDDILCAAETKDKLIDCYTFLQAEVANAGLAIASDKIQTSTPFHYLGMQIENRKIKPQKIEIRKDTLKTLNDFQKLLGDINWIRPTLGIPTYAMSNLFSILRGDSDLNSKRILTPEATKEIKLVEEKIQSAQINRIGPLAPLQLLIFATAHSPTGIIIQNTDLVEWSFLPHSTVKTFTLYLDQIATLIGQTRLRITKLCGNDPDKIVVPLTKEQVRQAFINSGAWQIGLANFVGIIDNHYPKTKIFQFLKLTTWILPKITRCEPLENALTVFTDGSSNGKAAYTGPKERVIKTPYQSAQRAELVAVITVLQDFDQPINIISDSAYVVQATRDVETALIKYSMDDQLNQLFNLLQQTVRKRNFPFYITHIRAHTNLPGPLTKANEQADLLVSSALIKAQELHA

[2] = target: T1, HERV-K reverse transcriptase (RT); assay: X-ray crystallography; remark: listed apart in the source

B1: U5-PBS DNA template/primer extended by ddT (dsDNA)
DNA 1: GGGACCTGAAAGCGAAAGGGAAAC
DNA 2: GTTTCCCTTTCGCTTTCAGGT
modifications: primer 3'-terminal 2',3'-dideoxy-T (incorporated from ddTTP)
Question: Does B1 bind [1]?
Answer: binds

B2: U5-PBS DNA template/primer, unextended (primer ends in G) (dsDNA)
DNA 1: GGGACCTGAAAGCGAAAGGGAAAC
DNA 2: GTTTCCCTTTCGCTTTCAGG
Question: Does B2 bind [2]?
Answer: binds
